Key:
PCNA (Homo sapiens) = PCNA (Homo sapiens) (UniProt P12004); settings: cited from earlier work
[1] = target: mutant human PCNA (surface-exposed cysteines mutated, N107C), unlabeled (human) (UniProt P12004); assay: stopped-flow FRET between Cy3-P/T DNA and Cy5-PCNA, trapping experiment with polδ; As a2, with polδ at a ratio of 1:1:1 PCNA:Cy5-PCNA:polδ. The substrates were Cy3-P/T DNA, Cy3-P/T DNA-No Flap and Cy3-P/T DNA-25 bp. The read-out is the overall amplitude of reloading over that of unloading (0.5 = all unlabeled PCNA unloaded, 1.0 = all unlabeled PCNA kept on DNA).

In the case of RFC (from UniProt P35251), the Kd (PCNA (Homo sapiens)) is given as 0.2 nM.
With “wild-type human DNA polymerase δ (polδ) (complex)” the A (T,Reload)/A (T,Unload) with polδ (Cy3-P/T DNA) [1] was 1, the A (T,Reload)/A (T,Unload) with polδ (Cy3-P/T DNA-25 bp) [1] was 1 and the A (T,Reload)/A (T,Unload) with polδ (Cy3-P/T DNA-No Flap) [1] was 0.99.
